# The RNAGym collection of RNA variant scans (doi:10.1073/pnas.2313332121)
# Variants at the floor of the assay were thinned out.
# B1: TPR 5TU (parent)
# chain: GGAUCUUCUCGAUCUAACAAAAAAGACAAAUCUGCCACAAAGCUUGAGAGCAUCUUCGGAUGCAGAGGCGGCAGCCUUCGGUGGCGCGAUAGCGCCAACGUUCUCAACUAUGACACGCAAAACGCGUGCUCCGUUGAAUGGAGUUUAUCAUG
# Variants of: B1
# Assay: polymerase ribozyme fitness, log enrichment relative to wild type (log ratio); higher = more active; in vitro selection for triplet polymerase activity
# Summary of the method: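 Genotype fitness is the logarithm of its enrichment divided by wild-type enrichment, using inverse-variance-weighted averages of replicates. That logarithm is base 2. Enrichment was measured by Illumina sequencing of input and output libraries from one triplicate in vitro selection round, with frozen incubation at −7 °C, on PCR-built, transcribed mutant libraries of each subunit of a heterodimeric triplet polymerase ribozyme, retaining genotypes with ≥10 input reads and ≥1 read per output.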
row,Variant,polymerase ribozyme fitness (log ratio)
1,GGAUCUUCUCGAUCUAACGAAAAAGACAAAUCUGCCACAAAGCUGGAGAGCAUCUUCGGAUGCAGAGGCGGCAGCCUUCGGUGGCGCGAGAGCGCCAACGUUCUCAACUAUGACACGCAAAACACGUGCUCCGUUGAAUGGAGUUUAUCAUG [A19G U45G U90G G124A],≤ -4.2
2,GGAUCUUCUCGAUCUAACGAAAAAGACAAAUCUGCCACAAAGCUUGAGAGCAUCUUCGGAUGCAGAGGCGGCAGCCUUCGGUGACGCGAUAGCGCCAACGUUCUCAACUAUGACACGCAAAACGCGUGCUCCGUUGAAUGGAGUUCAUCAUG [A19G G84A U146C],-0.526
3,GGAUCUUCUCGAUCUAACGAAAAAGACAAAUCUGCCACAAAGCUUGAGAGCAUCUUCGGAUGCAGAGGCGGCAGCCUUCGGUGGCGCGAUAGCGCCAACGUGCUCAACUAUGACACGCAAAACGCGUGCUCCGUUGAAUGGAGUUUAUCAUG [A19G U102G],-3.38
4,GGAUCUUCUCGAUCUAACGAAAAAGACAAAUCUGCCACAAAGCUUGAGAGCAUCUUCGGAUGCAGAGGCGGCAGCCUUCGGUGGCGCGAUAACGCCAACGUUCUCAACUAUGACACGCAAAACUCGUGCUCCGUUGAAUGGAGUUUAUCAUG [A19G G92A G124U],-3.61
5,GGAUCUUCUCGAUCUAACGAAAAAGACAAAUCUGCCACAAAGCUUGAAAGCAUCUUCGGAUUCAGAGGCGGCGGCCUUCGGUGGCGCGAUAGCGCAAACGUUCUCAACUAUGACACGCGAAACGCGUGCUCCGUUGAAUGGAGUUUAUCAUG [A19G G48A G62U A73G C96A A119G],≤ -4.2
6,GGAUCUUCUCGAUCUAACGAAAAAGACAAAUCUGCCACAAAGCUUGAGAGCAUCUUCGGAUGCAGAGGCGGCAGCCAUCGGUGGCGCGAUAGCGCUAACGUUCUCAACUAUGGCACGCAAAACGCGUGCUCCGUUGAAUGGAGUUUAUCAUG [A19G U77A C96U A113G],≤ -4.2
7,GGAUCUUCUCGAUCUAACGAAAAAGACAAAUCUGCCACAAAGCUUGAGAGCAUCUUCGGAUGCAGAGGCGGCAGCCUUCGGUGGCGCGAUAGCGCCAACGUUCUCAACUAUGACACGCAAAACGCGUGCUCCGUUGAAUGCAGUUUAUCAUG [A19G G141C],-0.542
8,GGAUCUUCUCGAUCUAACGAAAAAGACAAAUCUGCCACAAAGCUUGAGAGCAUCUUCGGAUGCAGAGGCGGCAGCCUUCGGUGGCGCGAUAGCGCCAACGUUCUCAACUAUGACACGCAAAACGCGUGCUCCGUUGAAUGUAGUUUAUCAUG [A19G G141U],1.06
9,GGAUCUUCUCGAUCUAACGAAAAAGACAAAUCUGCCACAAAGCUUGAGAGCAACUUCGGAUGCAGAGGCGGCAGCCUUCGGUGGCGCGAUGGCGUCAACGUUCACAACUAUGACACGCAACACGCCUGCUCCGUGGAAUGGAGUUUAUCAUG [A19G U53A A91G C95U U104A A121C G126C U135G],≤ -4.2
10,GGAUCUUCUCGAUCUAACGAAAAAGACAAAUCUGCCACAAAGCAUGAGAGCAUCUUCAGAUGCAGAAGCGGCAGCCUUCGGUGGCGAGAUAGCGCCAACGUUCUCGACUAUGACACGCAAAACGCGUGCUCCGUUGAAUGUAGUUUAUCAUG [A19G U44A G58A G67A C87A A106G G141U],≤ -4.2
11,GGAUCUUCUCGAUCUAACGAAAAAGACAAAUCUGCCACAAAGCUUGAGAGCAUCUUCGGAUGCAGAGGCGGCAGCCUUCGGUGGCGCGAUAGAGCCAACGUUCUCAACUAUGUCACGCAAAACGCGUGCUCCGUUGAAUGCAGUUUAUCAUG [A19G C93A A113U G141C],≤ -4.2
12,GGAUCUUCUCGAUCUAACGAAAAAGACAAAUCUGCCACAAAGCUUGAGAGCAUCUUCGGAUGCAGAGGCGGCAGCCUUCGCUGGCGCGAUAUCGCCAACGUUCUCAACUAUGACACGCAAAACGCGUGCUCCGGUGAAUGGAGUUUAUCAUG [A19G G81C G92U U134G],-2.69
13,GGAUCUUCUCGAUCUAACGAAAAAUACAAAUCUGCCACAAAGCUUGAGAACAUCUUCGGAUGCAGAGGCGGCAGCCUUCGGUGGCGCGAUAGUGCCAACGUUCUCAACUAUGACACGCAGAACGCGUGCUCCGUUGAAUGGAGUUUAUCAUG [A19G G25U G50A C93U A120G],≤ -4.2
14,GGAUCUUCUCGAUCUAACGAAAAAGACAAAUCUGCCACAAAGCGUGAGAGCAUCUUCGGAUGUAGAGGCGGCAGCGUUCGGUGGCGCGAUAGCGCCAACGUUAUCAACUAUGACACGCAAAACGAGUGCUCCGUUGAAUGGAGUUUAUCAUG [A19G U44G C63U C76G C103A C125A],≤ -4.2
15,GGAUCUUCUCGAUCUAACGAAAAAGACAAAUCUGCCACAAAGCUUGAGAGCAUCUUCGGAUGCAGAGGCGGCAGCCUUCGGCGGCGCGAUAGCGCCAACGUUCUCAACUAUGACAUGCAAAACGAGUGCUCCGUUGAAUGUAGUUUAUCAUG [A19G U82C C116U C125A G141U],≤ -4.2
16,GGAUCUUCUCGAUCUAACGAAAAAGACAAAUCUGCCACAAAGCUUGAGAGCAUCUUCGGAUGCAGAGGCGGCAGCCUUCGGUGGCGCGAUAGUGCCAACGUUCUCAACUAUGACACGCAAAACGCGUGCUCCGUUGAAUGGAGUUUAUCAUG [A19G C93U],-1.99
17,GGAUCUUCUCGAUCUAACGAAAAAGACAAAUCUGCCACAAAGCUUGAGAGCAACUUUGGAUGCAGAGGCGGCAGCCUUCGGUGGCGCGAUAGCGCAAACCUUCUCAACUAUGACACGCAAAACGCGUGCUCCGCUGAAUGGACUUUAUCAUG [A19G U53A C57U C96A G100C U134C G143C],≤ -4.2
18,GGAUCUUCUCGAUCUAACGAAAAAGACAAAUCUGCCACAAAGCUUGAGAGCAUCGUGGGAUGCAGAGGCGGCAGCCUUCGGUGGCGCGAUAGCGCCGACGUUCUCCACUAUGACACGCAAAACGCGUGCUCCGUUGAAUGGAGUUUAUCAUG [A19G U55G C57G A97G A106C],-2.96
19,GGAUCUUCUCGAUCUAACUAAAAAGACAAAUCUGCCACAAAGCUUGAGAGCAUCUUCGGAUGCAGAGGCGGCAGCCUUCGGUGGCGCGAUAGCGCCAACGUUCUCAACUAUGACACGCAAAACGCGUGCUCCGUUGAAUGGAGUUUAUCAUG [A19U],-0.43
